T1: NKp30 on KHYG-1 NK cells (human, UniProt O14931 19-201)
T1 chain: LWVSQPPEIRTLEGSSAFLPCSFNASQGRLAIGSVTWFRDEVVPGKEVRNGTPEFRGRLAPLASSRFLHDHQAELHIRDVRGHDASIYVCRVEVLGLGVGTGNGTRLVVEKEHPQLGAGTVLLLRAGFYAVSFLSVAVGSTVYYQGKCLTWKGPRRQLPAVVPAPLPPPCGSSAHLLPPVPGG

T2: TRBC1 on TRBC1+ Jurkat cells (human, UniProt P01850 1-176)
T2 chain: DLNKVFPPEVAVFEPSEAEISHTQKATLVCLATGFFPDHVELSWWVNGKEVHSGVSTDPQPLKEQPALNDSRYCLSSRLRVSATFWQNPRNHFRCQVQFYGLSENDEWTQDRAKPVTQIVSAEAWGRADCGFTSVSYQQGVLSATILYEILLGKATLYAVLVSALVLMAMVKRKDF

T3: human TRBC1 (hTRBC1), construct BIM0444 (human, UniProt P01850 1-129)
T3 chain: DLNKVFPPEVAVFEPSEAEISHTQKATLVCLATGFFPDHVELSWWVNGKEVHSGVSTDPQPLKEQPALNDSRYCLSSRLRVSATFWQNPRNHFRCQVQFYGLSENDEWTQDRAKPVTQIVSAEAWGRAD


Columns and labels:
[1] = target: T1, NKp30 on KHYG-1 NK cells; assay: FACS cell binding
[2] = target: T2, TRBC1 on TRBC1+ Jurkat cells; assay: FACS cell binding
[3] = target: T3, human TRBC1 (hTRBC1), construct BIM0444; assay: Octet BLI

Row | EC50 [1] [nM] | EC50 [2] [nM] | Kd [3] [nM] | Binder
1 | 9.48 | 61 |  | BJM1042 (anti-TRBC1/NKp30 bispecific antibody, N297A) (bispecific antibody) heavy: not shown light: DVVMTQSPLSLPVTLGQPASISCRSSQRLVHSNGNTYLHWYQQRPGQSPRLLIYRVSNRFPGVPDRFSGSGSGTDFTLKISRVEAEDVGVYFCSQSTHVPYTFGGGTKVEIKRTVAAPSVFIFPPSDEQLKSGTASVVCLLNNFYPREAKVQWKVDNALQSGNSQESVTEQDSKDSTYSLSSTLTLSKADYEKHKVYACEVTHQGLSSPVTKSFNRGEC scFv: EIQLLESGGGLVQPGGSLRLSCAVSGFSITTTGYHWNWVRQAPGKGLEWVGYIYSSGSTSYNPSLKSRFTISRDTSKNTFYLQMNSLRAEDTAVYYCARGDWHYFDYWGQGTMVTVSSGGGGSGGGGSGGGGSGGGGSDSVTTQSPLSLPVTLGQPASISCSGEKLSDKYVHWYQQRPGQSPRMLIYENDRRPSGVPDRFSGSNSGNDATLKISRVEAEDVGVYFCQFWDSTNSAVFGGGTKVEIKDKTHTCPPCPAPELLGGPSVFLFPPKPKDTLMISRTPEVTCVVVDVSHEDPEVKFNWYVDGVEVHNAKTKPREEQYASTYRVVSVLTVLHQDWLNGKEYKCKVSNKALPAPIEKTISKAKGQPREPQVCTLPPSREEMTKNQVSLSCAVKGFYPSDIAVEWESNGQPENNYKTTPPVLDSDGSFFLVSKLTVDKSRWQQGNVFSCSVMHEALHNHYTQKSLSLSPGK
2 | 6.61 | 4.55 |  | BJM1052 (anti-TRBC1/NKp30 bispecific antibody, N297A) (bispecific antibody) heavy: not shown light: DVVMTQSPLSLPVTLGQPASISCRSSQRLVHSNGNTYLHWYQQRPGQSPRLLIYRVSNRFPGVPDRFSGSGSGTDFTLKISRVEAEDVGVYFCSQSTHVPYTFGGGTKVEIKRTVAAPSVFIFPPSDEQLKSGTASVVCLLNNFYPREAKVQWKVDNALQSGNSQESVTEQDSKDSTYSLSSTLTLSKADYEKHKVYACEVTHQGLSSPVTKSFNRGEC scFv: EIQLLESGGGLVQPGGSLRLSCAVSGFSITTTGYHWNWVRQAPGKGLEWVGYIYSSGSTSYNPSLKSRFTISRDTSKNTFYLQMNSLRAEDTAVYYCARGDWHYFDYWGQGTMVTVSSGGGGSGGGGSGGGGSGGGGSDSVTTQSPLSLPVTLGQPASISCSGEKLSDKYVHWYQQRPGQSPRMLIYENDRRPSGVPDRFSGSNSGNDATLKISRVEAEDVGVYFCQFWDSTNSAVFGGGTKVEIKDKTHTCPPCPAPELLGGPSVFLFPPKPKDTLMISRTPEVTCVVVDVSHEDPEVKFNWYVDGVEVHNAKTKPREEQYASTYRVVSVLTVLHQDWLNGKEYKCKVSNKALPAPIEKTISKAKGQPREPQVCTLPPSREEMTKNQVSLSCAVKGFYPSDIAVEWESNGQPENNYKTTPPVLDSDGSFFLVSKLTVDKSRWQQGNVFSCSVMHEALHNHYTQKSLSLSPGK
3 | 7.99 | 60.5 |  | BJM1038 (antibody) chain 1: not shown chain 2: DVVMTQSPLSLPVTLGQPASISCRSSQRLVHSNGNTYLHWYQQRPGQSPRLLIYRVSNRFPGVPDRFSGSGSGTDFTLKISRVEAEDVGVYFCSQSTHVPYTFGGGTKVEIKRTVAAPSVFIFPPSDEQLKSGTASVVCLLNNFYPREAKVQWKVDNALQSGNSQESVTEQDSKDSTYSLSSTLTLSKADYEKHKVYACEVTHQGLSSPVTKSFNRGEC chain 3: EIQLLESGGGLVQPGGSLRLSCAVSGFSITTTGYHWNWVRQAPGKGLEWVGYIYSSGSTSYNPSLKSRFTISRDTSKNTFYLQMNSLRAEDTAVYYCARGDWHYFDYWGQGTMVTVSSGGGGSGGGGSGGGGSGGGGSSSETTQPPSVSVSPGQTASITCSGEKLSDKYVHWYQQKPGQSPVMVIYENDRRPSGIPERFSGSNSGNTATLTISGTQAMDEADYFCQFWDSTNSAVFGGGTQLTVLDKTHTCPPCPAPELLGGPSVFLFPPKPKDTLMISRTPEVTCVVVDVSHEDPEVKFNWYVDGVEVHNAKTKPREEQYASTYRVVSVLTVLHQDWLNGKEYKCKVSNKALPAPIEKTISKAKGQPREPQVCTLPPSREEMTKNQVSLSCAVKGFYPSDIAVEWESNGQPENNYKTTPPVLDSDGSFFLVSKLTVDKSRWQQGNVFSCSVMHEALHNHYTQKSLSLSPGK
4 | 7.66 | 8.29 |  | BJM1048 (antibody) chain 1: not shown chain 2: DVVMTQSPLSLPVTLGQPASISCRSSQRLVHSNGNTYLHWYQQRPGQSPRLLIYRVSNRFPGVPDRFSGSGSGTDFTLKISRVEAEDVGVYFCSQSTHVPYTFGGGTKVEIKRTVAAPSVFIFPPSDEQLKSGTASVVCLLNNFYPREAKVQWKVDNALQSGNSQESVTEQDSKDSTYSLSSTLTLSKADYEKHKVYACEVTHQGLSSPVTKSFNRGEC chain 3: EIQLLESGGGLVQPGGSLRLSCAVSGFSITTTGYHWNWVRQAPGKGLEWVGYIYSSGSTSYNPSLKSRFTISRDTSKNTFYLQMNSLRAEDTAVYYCARGDWHYFDYWGQGTMVTVSSGGGGSGGGGSGGGGSGGGGSSSETTQPPSVSVSPGQTASITCSGEKLSDKYVHWYQQKPGQSPVMVIYENDRRPSGIPERFSGSNSGNTATLTISGTQAMDEADYFCQFWDSTNSAVFGGGTQLTVLDKTHTCPPCPAPELLGGPSVFLFPPKPKDTLMISRTPEVTCVVVDVSHEDPEVKFNWYVDGVEVHNAKTKPREEQYASTYRVVSVLTVLHQDWLNGKEYKCKVSNKALPAPIEKTISKAKGQPREPQVCTLPPSREEMTKNQVSLSCAVKGFYPSDIAVEWESNGQPENNYKTTPPVLDSDGSFFLVSKLTVDKSRWQQGNVFSCSVMHEALHNHYTQKSLSLSPGK
5 |  | 5.26 |  | BJM0889 (single arm anti-TRBC1 antibody, N297A) (antibody, V domains shown) VH: QVQLVQSGAEVKKPGSSVKVSCKASGYTFTGYVMHWVRQAPGQGLEWMGFINPYNDDIQSNERFRGRVTITSDKSTTTAYMELSSLRSEDTAVYYCARGAGYNFDGAYRFFDFWGQGTLVTVSS VL: DVVMTQSPLSLPVTLGQPASISCRSSQRLVHSNGNTYLHWYQQRPGQSPRLLIYRVSNRFPGVPDRFSGSGSGTDFTLKISRVEAEDVGVYFCSQSTHVPYTFGGGTKVEIK
6 |  |  | 4 | JOVI.1 Fab BIM0446 (Fab, V domains shown) VH: EVRLQQSGPDLIKPGASVKMSCKASGYTFTGYVMHWVKQRPGQGLEWIGFINPYNDDIQSNERFRGKATLTSDKSSTTAYMELSSLTSEDSAVYYCARGAGYNFDGAYRFFDFWGQGTTLTVSS VL: DVVMTQSPLSLPVSLGDQASISCRSSQRLVHSNGNTYLHWYLQKPGQSPKLLIYRVSNRFPGVPDRFSGSGSGTDFTLKISRVEAEDLGIYFCSQSTHVPYTFGGGTKLEIK
7 |  |  | 9 | humanized JOVI.1 Fab BIM0460 (Fab, V domains shown) VH: QVQLVQSGAEVKKPGSSVKVSCKASGYTFTGYVMHWVRQAPGQGLEWMGFINPYNDDIQSNERFRGRVTITSDKSTTTAYMELSSLRSEDTAVYYCARGAGYNFDGAYRFFDFWGQGTLVTVSS VL: DVVMTQSPLSLPVTLGQPASISCRSSQRLVHSNGNTYLHWYQQRPGQSPRLLIYRVSNRFPGVPDRFSGSGSGTDFTLKISRVEAEDVGVYFCSQSTHVPYTFGGGTKVEIK
8 | 5.36 |  |  | BJM1079 (BJM0411 Parental) (antibody, V domains shown) VH: EIQLLESGGGLVQPGGSLRLSCAVSGFSITTTGYHWNWVRQAPGKGLEWVGYIYSSGSTSYNPSLKSRFTISRDTSKNTFYLQMNSLRAEDTAVYYCARGDWHYFDYWGQGTMVTVSS VL: DSVTTQSPLSLPVTLGQPASISCSGEKLSDKYVHWYQQRPGQSPRMLIYENDRRPSGVPDRFSGSNSGNDATLKISRVEAEDVGVYFCQFWDSTNSAVFGGGTKVEIK
9 | 5.2 |  |  | BJM1078 (BJM0407 Parental) (antibody, V domains shown) VH: EIQLLESGGGLVQPGGSLRLSCAVSGFSITTTGYHWNWVRQAPGKGLEWVGYIYSSGSTSYNPSLKSRFTISRDTSKNTFYLQMNSLRAEDTAVYYCARGDWHYFDYWGQGTMVTVSS VL: SSETTQPPSVSVSPGQTASITCSGEKLSDKYVHWYQQKPGQSPVMVIYENDRRPSGIPERFSGSNSGNTATLTISGTQAMDEADYFCQFWDSTNSAVFGGGTQLTVL
